Assay: label from the status in PepcDB records
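Also: failed if final PepcDB status was selected cloned or expressed and not failed if soluble or beyond.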

Sequence | protein production
MQSTDLGNKESGKIWHRKPSPATHDGIIVNIVHSTSEYHPKVLRFLNVAFDGSGDSFIAGDHQGNIYVFDLHGNRFNLVQRTAQACTALAFNLRRKSEFLVALADYSIKCFDTVTKELVSWMRGHESSVCSISVHASGRYAITTSSDTAQLWDLDTFQRKRKLNIRQSVGIQKVFFLPLSNTILSCFKDNSIFAWECDTLFCKYQLPGPPEGSNILYKVFAVTRDGRILAAGGKSNHLHLWCLEATGLFRIIQMPAKVRAVRHLEFLPDSFDAGSNQVLGVLSQDGIMRFVNIQTCKLLFEIGTVEEGISSSVISPHGRYIASIMENGSLNVYSVQALTQEINKPPPPLVKVIEDLPSNTVSSSNLKMKIMPGRVQRPARCKESKIPTRVLKQDLTGDLENKENELSEGLNKKRLQILLKGYGEYPTKYRMFIWRSLLQLPENHTAFSSLVDKGTHAAYLSLQKKYPIKSRKLLRVLQRTLSALAHWSAIFSDTPYLPLLAFPFVKLFQNNQLICFEVVATLIINWCQHWFEYFPNPPINILSMIENVLAFHDKELLQHFIDRDITSQVYAWPLLETLFSEVLTREEWLRLFDNIFSNHPSFLLMTVVAYSTCSRAPLLNCTLKNDFEYFFHHRNNLDINVVIREVYHLMETTPADIHPNSMLDAFVALTKGQYPIFNQYPKFIVDYQTREWERIRNDELDFLRERQTVENMQAEVDEQRAKDEAWYQKQELLRRAEETRREILLQEEEKMAQQRQRLAAVKRELEIKEIHLQDAARRRLLKLQQDQREMELRRLEDEIERKVQMRDQEIAATAKDLEIRQLELEAQKRLYEKYSFSLSFMQNIV | failed
MQTDEKLHVLLADDDPIMLARLSRQLEADGHHVASRRDGETALAYALEHQPEMVITDWHMKPMNGLELCRALRESALGGNVYIVMLTASESEDALVEAFGAGIDDYVIKPPSVRVLKARIRAGQRIITLHKKLARERKEIERYSSELAAANRRLELMAHTLEHHHHHH | failed
MQTLNDIYLAYLDSLNHQAFDELGTFVDDNVEHNGRPFGLSGYRDMLVKDFADIPDLRFEAEILVSDATRLAARLFFDCTPKSIFMDLPVNGRRVQFCEHVFYDFEQAKIRRVWSVLDKVAIERQLG | not failed
MQTSFCVLVSIIERMPTWNDIKVRNPQHSHNYAKRWENLEAEGNDINGEARLIDALVQRGSKILDAGCGQGRVGGYLSARGHIVTGIDIDDYLISEAEKKFPSATWHVGDLGSESIPDQGFDIAVCAGNVITFIEPDKQEAALAHIFEALRPNGRCIIGFGAGRGYVFPQFFEDARNVGFVIENNFESWGLNPLTNRSQFLVAFLRKPELEHHHHHH | failed
MQVELIIKNLKVYNSYFKKFIKSDVLINEGKFLHIGKGYEDRLWSENIIDGEDKYIIPGLIDIHMHIESSMTIPREFSKAAIKHGVTTVVADPHEIANVFGVRGIEEFIKFKGNLDIFYGILEHHHHHH | failed
MQVFIMRHGDAALDAASDSVRPLTTNGCDESRLMANWLKGQKVEIERVLVSPFLRAEQTLEEVGDCLNLPSSAEVLPELTPCGDVGLVSAYLQALTNEGVASVLVISHLPLVGYLVAELCPGETPPMFTTSAIASVTLDESGKGEFNWQMSPCNLKMAKAI | not failed
MQVFLQGLLFGIVYIAPIGMQNLFVVSTAIEQPLQRALRVALIVIAFDTSLSLACFYGVGRLLQTTPWLELGVLLIGSLLVFYIGWNLLRKKATAMGTLDADFSYKAAILTAFSVAWLNPQALIDGSVLLAAFRVSIPAALTHFFMLGVILASIIWFIGLTSLISKFKHLMQPRVLLWINRICGGIIILYGVQLLATFITKI | failed
MQVISPSSPAPRFAGKERFSEVYGELNDDFGSKLKISSKEEENRDDDSWWNQNGTDKDDEGREEDFSFASVNADNSPITADEAFEDGQIRPVYPLFNRNIFFDDPEEKTLRSPLKKLFVESTTTEEEEEESDTVGPYCSWTNRTVEQASPETCRKSNSTGFSKLWRFRDLVLRSNSDGKDAFVFLSNGSSSTSSTSSTAARLSGVVKSSEKGKEKTKTDKKKDKMRTKSAHEKLYMRNRAMREEGKRRSYLPYKHVGFFTNVNGLTRNVHPY | failed
MQVITSVKEAKQIVKDWKSHQLSIGYVPTMGFLHDGHLSLVKHAKTQDKVIVSIFVNPMQFGPNEDFSSYPRDLERDIKMCQDNGVDMVFIPDATQMYLKNFSTYVDMNTITDKLCGAKRPGHFRGVCTVLTKFFNILNPDIVYMGQKDAQQCVVVRHMVDDLNFDLKIQICPIIREEDGLAKSSRNVYLSKEERKASLAISQSIFLAEKLVREGEKNTSKIIQAMKDILEKEKLIKIDYIELVDFNTMENIENITDNVLGAVAAFVGKTRLIDNFLVQGLK | not failed
MQVLHVCSEMFPLLKTGGLADVIGALPAAQIADGVDARVLLPAFPDIRRGVTDAQVVSRRDTFAGHITLLFGHYNGVGIYLIDAPHLYDRPGSPYHDTNLFAYTDNVLRFALLGWVGAEMASGLDPFWRPDVVHAHDWHAGLAPAYLAARGRPAKSVFTVHNLAYQGMFYAHHMNDIQLPWSFFNIHGLEFNGQISFLKAGLYYADHITAVSPTYAREITEPQFAYGMEGLLQQRHREGRLSGVLNGVDEKIWSPETDLLLASRYTRDTLEDKAENKRQLQIAMGLKVDDKVPLFAVVSRLTSQKGLDLVLEALPGLLEQGGQLALLGAGDPVLQEGFLAAAAEYPGQVGVQIGYHEAFSHRIMGGADVILVPSRFEPCGLTQLYGLKYGTLPLVRRTGGLADTVSDCSLENLADGVASGFVFEDSNAWSLLRAIRRAFVLWSRPSLWRFVQRQAMAMDFSWQVAAKSYRELYYRLK | failed
MQVQHHNAHLSRSVQAQVARLVLQANLAYGESNSNGLSYIQRLKARNECREYLNQALALEADHAAALGLLGRVEMDDGQLEKAHALFNASLNRQPAQAQQYCNLGYWALKSERPALAEEYFLQALECDRQSAAAFCGVAHAKRLQGQFDVAYLHYRKLLQSGSEWDSVYSGMLSCAQHLQVHKADSDLALDAIALLRQEGLPHQEIGHFVGAIIQQQYDLDNPNAEIFLDAAAEDELLILALQKTLMPNAAVEELVVLLRRAIMAEVAQTASLRDELQPLCLAIAEYADRTGFALAAEDDEERLAATINESIMAQFAVGEPQEALIGSLMISAMYGALFHQNFAVQLGQWNLVDWPLAMQPIMAASYYNRAEEEAIKQNFDEKAEELCLEKTDVPQAWPAWSQLAYRTETSLKAVMAQELGLNTDNLPATLRIMVCGAQSGQRAMELAQYLNDVEVIAVDESLANIAKGTRMAQSLNMDNIVFWPWSIAQRFVADGHKVHWVEVGRLPSPAMTELSLAALINSASIAGAVVHMHTSMAEQTAGDKQIRRLIAEHQLQPTRTSLRQLRRMVLANKQDAVWSSLLQDDDFYSLGGCRDRWFRPQDANQLKELLALVSNEVEWKLVKARDEDGHSLATGPVQRQIQAEALGSEVQSLMGQNLSVYFQRRR | failed
MQVSVETTQGLGRRVTITIAADSIETAVKSELVNVAKKVRIDGFRKGKVPMNIVAQRYGASVRQDVLGDLMSRNFIDAIIKEKINPAGAPTYVPGEYKLGEDFTYSVEFEVYPEVELQGLEAIEVEKPIVEVTDADVDGMLDTLRKQQATWKEKDGAVEAEDRVTIDFTGSVDGEEFEGGKASDFVLAMGQGRMIPGFEDGIKGHKAGEEFTIDVTFPEEYHAENLKGKAAKFAINLKKVEERELPELTAEFIKRFGVEDGSVEGLRAEVRKNMERELKSAIRNRVKSQAIEGLVKANDIDVPAALIDSEIDVLRRQAAQRFGGNEKQALELPRELFEEQAKRRVVVGLLLGEVIRTNELKADEERVKGLIEEMASAYEDPKEVIEFYSKNKELMDNMRNVALEEQAVEAVLAKAKVTEKETTFNELMNQQA | not failed
MQWQESLPWTPEARQKLKNIPYFARVQARQRIEQLARQADLDEVTVDLVEQARLEFGQ | failed
MQWRNTSSRYGVFSLFLHWGSALVVFGLFGLGLWMRELSYYDPWYHPAPALHKSIGILLAIALLVRIVWRFVSPPPPAPANHGPLTRVASKLGHLALYGLLLAVIVAGYLISTADGEPISVFGWFSVPATLSGLPDQADVAGEIHLYLAWALVVFAVLHALAALKHHFVDRDPTLKRMLGRSSNDQQPR | not failed
MQYLSILEALGGLGVFILGMKTMSEGLQKIAGDRFRRHLERIAGNRLTAALLGSTLSSLLQSSSAACIITVGFINAGLISLYQALGILLGTGIGTTLAVQFIAFKISSFALPAVFVGVCLRCFLRRRRWVNAGELILGAGLLFLGLRIMESNLQPLQEYAIVFTHQDMFVSKRIAAVLFGATLTLLVQSGSTAIAVIMALAGSSLVSFETGAAMVIGELLGTSVITAFASIGGTLEAKRTVFFYFMVNLLAVVVVMLVFPSYLSFVTYISPEDIASSAGISRVLANTHTLFSIMSAVIFLPLIGFFARTAPRIIPGSERASSVEARTVFIDPRVLNTPPIALLQARSELRRMAGISLTMYSEMVEQFFRYDARKAVGIRQKENAVDILQRDLTDFLVSLSRRELAPEASMEIPVMLQLIGELEHVADQSEAVLDYLRRKKEEKLLFSNAAMTEIRHLARTVEKLVDLAVETMDNPPPDAVEQGRSLRDDVGRQREAMLDGHIKRLSAGKCSVRAGIIYADMITAFVKIADSSVTIIETRKEFT | failed
MRAAALAGAAGVVLCLLGGIGGAVAALSLWLAQPAFALAVSWARGTRAVPGQPRAIAQALPPLLAIWGVGLLALAALISWPLTALRDSGSLAAALALSVAVSAALLGLWRTWPLWGEVERDGGALAPRWQALAAQELHAWRGLLAAALVLAMCTLAVVLAWPGWLSGGLRWGLAVAACVLLPVAHLLLQRTPAPMRSDVPQTRQAADFFSEAAAEPRPLEPVAQHQLVPELFEAARSGRVDRALQLLEAGADPQALPLPEWRDQRSLPALAAVLPDLRLLRELIVRRVDVNQPHRGMTPLLAATRDSWHGRPDAVMTLLANGADPRASDNDGNTPLHHAVRSSDPGVAALLHDAAAELDALNNEGHSPLAMACQVGNWRLAKFLLERGAQSEPEGGAPVLLAAAGTEEDDPAGVQLLLKHKARVDARDRQRRSALHEAALAGHGDIVEALLSAGANLEARDLLGRTPWLDAARQARSAVLERLVARKADVLAIDGDGRNALMLACAADNVSPALIRRLLDLQVPADSVDAHGRRAVDVAAEAGRWAIVQLLDPAYPLPAAVSDAQGDTPGAAVLPDRPPLVLLREGLQLGQRDGLVALARLCAPDELGGLLHDAHLALNAEAVDWLLRHGADAEVRDACGDVPMFALLSRGVEAVPALQALLRHGVSPAGAGGLTRLLSACVQHDAASRGLEQFALELLERGADPFAPSAAGDPPLSLAVRLGWLRLQHWLLEHGVDREARDSHGMTALHLATALGRDASLKLLVKQGASPEARAADGQTPLGVALSIGRRDLADWLDWRIWSLPRRTLREADVPAAAMTGDTDAVRRLIDLGLAVDAVDAQGCTALLRAAGGGHLGVVTHLLGRGADPQRAANSGATPLSAAVSMRQTEIVAALLHAGAQIEHRLPGGVTVLMLACALGLPDIVARLLTAAADVHATDNQGLAPLHCAALYGFTARDKNRLLALLDTLLLAGADPDYLAGGRVSPLLLLLGARAEPGTSCDEQVVLAGVERLLDEDVSLDVADQRGFGPLHLAALHGLPLLVQRLLRAGADADRRDALNRTPREIAIMRGFIDVAGQFEPALPGVSSMARFLREGR | failed
MRAARLIKMVLLLQSRPTMTAAELARELEVSERTVTRDAQALSEAGVPVYAERGRAGGYRLVGGYRTRLTGLARGEAEALFLSGVPGALREMGLEDAASAARLKVSAALLPSLRDASRTAAQRFHLDAPNWFREPETPELLPAVADAVWDDRRVAARYRRGTDEVVRELEPYGLVLKAGVWYLCARVAGTAGDGPFRVYRIDRFTAVEAGEERFVRDDGFDLPAFWAERAEQFARSILRAEVVVRLSERGVRGLPYAVDALSAREALEAAGAPDADGWVTVALPVESEEVAHAQLRGLGPEVEVLAPAALRERFAREARRLAELYGG | failed
